In US20210087258A1 (UNIVERSITY OF TOKYO, published 2021):

T1: P1-2 domain of VP1 of human norovirus (GII.4 strain) (human norovirus (GII.4 strain))
T1 construct: also called VP1 P1-2 domain
T1 chain: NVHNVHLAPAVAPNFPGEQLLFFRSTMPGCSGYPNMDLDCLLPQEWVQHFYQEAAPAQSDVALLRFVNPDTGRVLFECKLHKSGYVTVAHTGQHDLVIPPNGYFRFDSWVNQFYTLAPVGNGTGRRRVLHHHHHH


Target: T1, P1-2 domain of VP1 of human norovirus …
Test: Western blot of denatured VP1 domains

| Binder | binding result |
| --- | --- |
| KVP-12B8 (VHH, Llama VHH (nanoantibody) expressed in E. coli from pMEK222 (FLAG tag and His tag); also called IC VP-12B8; not shown: FLAG tag and His tag from vector pMEK222) VHH: EVQLVESGGGSVQSGGSLRLSCAASGYPFSDNAMGWYRQAPGNQRELVATITNSNSTKYADSVKGRFTISRDSAKNTIYLEMNSLKPEDTAIYYCRIERTGRTSIKWTYWGQGTQVTVSS | no binding (tested: 10 µg/ml) |
| KVP-7C6 (VHH, Llama VHH (nanoantibody) expressed in E. coli from pMEK222 (FLAG tag and His tag); not shown: FLAG tag and His tag from vector pMEK222) VHH: EVQLVESGGGLVQAGGSLRLSCAASGRTFGPNVMGWYRQAPGKQRELVASKTSGRLSNYADSVKGRFAISRDFAKNTLYLQMNNLRPDDTAVYYCRLWDSARSTEYWGQGTQVTVSS | no binding (tested: 10 µg/ml) |
